Target: T1, CasEnd-21 (synthetic construct)
T1 chain: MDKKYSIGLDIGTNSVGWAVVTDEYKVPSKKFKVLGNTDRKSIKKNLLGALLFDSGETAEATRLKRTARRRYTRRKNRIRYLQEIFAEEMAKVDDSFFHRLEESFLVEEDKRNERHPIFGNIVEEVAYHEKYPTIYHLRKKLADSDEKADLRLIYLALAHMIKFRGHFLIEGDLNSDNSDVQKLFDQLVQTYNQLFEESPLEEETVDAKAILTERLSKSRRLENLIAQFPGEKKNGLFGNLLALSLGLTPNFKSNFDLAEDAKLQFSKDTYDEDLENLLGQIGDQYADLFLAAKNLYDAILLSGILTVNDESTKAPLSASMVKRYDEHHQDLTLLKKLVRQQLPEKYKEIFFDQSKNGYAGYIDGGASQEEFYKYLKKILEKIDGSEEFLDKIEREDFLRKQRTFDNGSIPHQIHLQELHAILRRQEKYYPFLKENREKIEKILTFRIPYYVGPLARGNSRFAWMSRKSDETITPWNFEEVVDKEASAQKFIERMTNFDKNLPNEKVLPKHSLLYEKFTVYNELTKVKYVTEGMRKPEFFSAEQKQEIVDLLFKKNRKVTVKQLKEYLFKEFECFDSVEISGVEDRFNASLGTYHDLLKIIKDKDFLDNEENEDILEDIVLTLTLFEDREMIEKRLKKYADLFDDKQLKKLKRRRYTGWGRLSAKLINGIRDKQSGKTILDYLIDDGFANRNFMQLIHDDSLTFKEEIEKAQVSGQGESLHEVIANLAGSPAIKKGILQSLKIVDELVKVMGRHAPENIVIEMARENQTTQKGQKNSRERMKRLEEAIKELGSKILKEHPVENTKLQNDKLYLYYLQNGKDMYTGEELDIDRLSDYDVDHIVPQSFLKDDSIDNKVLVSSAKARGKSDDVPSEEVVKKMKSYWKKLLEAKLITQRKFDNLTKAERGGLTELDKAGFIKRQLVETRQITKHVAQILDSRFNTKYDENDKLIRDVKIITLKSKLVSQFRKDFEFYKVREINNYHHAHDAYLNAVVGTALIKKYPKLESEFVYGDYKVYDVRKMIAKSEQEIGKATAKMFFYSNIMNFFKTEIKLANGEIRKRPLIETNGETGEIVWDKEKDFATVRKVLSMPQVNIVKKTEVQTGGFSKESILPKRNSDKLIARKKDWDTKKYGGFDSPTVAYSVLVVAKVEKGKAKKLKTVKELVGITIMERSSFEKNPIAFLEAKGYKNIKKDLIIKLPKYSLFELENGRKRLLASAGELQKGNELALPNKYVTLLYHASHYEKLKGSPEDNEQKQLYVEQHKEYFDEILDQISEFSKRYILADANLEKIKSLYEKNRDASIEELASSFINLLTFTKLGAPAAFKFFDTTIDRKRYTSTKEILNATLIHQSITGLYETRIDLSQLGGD
Assay: cell_activity; +++; HEK293T; PAM not stated
How it was run: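 BFP-to-GFP conversion via reverse transcriptase fusion with each Cas endonuclease plus template RNA: 200 ng of each plasmid nucleofected into 250,000 BFP-expressing HEK293T cells (program DS-150). Percent GFP+ cells by flow cytometry at day 4 measured editing.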

B1: BFP-to-GFP template RNA ; BFP reporter protospacer (ssRNA ; dsDNA)
RNA: GCCGAAGCACUGCACGCCGUGUUUUAGAGCUAGAAAUAGCAAGUUAAAAUAAGGCUAGUCCGUUAUCAACUUGAAAAAGUGGCACCGAGUCGGUGCACCCUGACGUACGGCGUGCAGUGCUU
DNA 1: GCCGAAGCACTGCACGCCGT
DNA 2: ACGGCGTGCAGTGCTTCGGC
activity: ≥ 100 % of reference
